Experimental data: patent publication US20200289603A1 (ELIXIRON IMMUNOTHERAPEUTICS HONG KONG, published 2020)

Assays:
[1] = target: recombinant human IFNγ protein (R&D systems, 285-IF-100) (human) (UniProt P01579); experiment: BLI (ForteBio Octet RED96); summary sentence to Table 10
[2] = target: T1, recombinant human IFNγ protein (R&D systems, 285-IF-100) (human, UniProt P01579 24-166); experiment: cell-based or functional assay
T1 sequence: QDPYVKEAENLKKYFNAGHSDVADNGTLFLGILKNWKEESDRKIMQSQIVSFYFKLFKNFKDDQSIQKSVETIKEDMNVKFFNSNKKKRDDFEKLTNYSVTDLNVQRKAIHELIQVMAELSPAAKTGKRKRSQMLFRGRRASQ

[3] = target: T1, recombinant human IFNγ protein (R&D …); experiment: BLI (ForteBio Octet RED96); summary sentence to Table 9
BSA = target: T2, BSA (UniProt P02769 25-607); experiment: ELISA on plate coated with BSA (2 µg/mL)
T2 construct: also called bovine serum albumin
T2 sequence (P02769 25-607 limits assumed): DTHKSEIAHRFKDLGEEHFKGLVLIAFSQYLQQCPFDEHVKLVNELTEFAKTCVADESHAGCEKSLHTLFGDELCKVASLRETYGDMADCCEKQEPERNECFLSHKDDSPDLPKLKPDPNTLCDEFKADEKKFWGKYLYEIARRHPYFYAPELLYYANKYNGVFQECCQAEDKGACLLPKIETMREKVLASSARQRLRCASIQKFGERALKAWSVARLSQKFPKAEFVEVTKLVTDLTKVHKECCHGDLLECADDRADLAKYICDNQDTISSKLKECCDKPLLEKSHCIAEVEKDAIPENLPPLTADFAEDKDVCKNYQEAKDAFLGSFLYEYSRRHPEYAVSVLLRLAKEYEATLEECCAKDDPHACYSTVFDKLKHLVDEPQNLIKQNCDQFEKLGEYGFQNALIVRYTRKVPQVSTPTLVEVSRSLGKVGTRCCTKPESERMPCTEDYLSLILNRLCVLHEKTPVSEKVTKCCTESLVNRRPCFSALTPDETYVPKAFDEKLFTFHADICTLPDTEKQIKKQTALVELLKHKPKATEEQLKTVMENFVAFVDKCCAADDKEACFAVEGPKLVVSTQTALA

[4] = target: T1, recombinant human IFNγ protein (R&D …); experiment: BLI (ForteBio Octet RED96); summary sentence to Table 10
[5] = target: recombinant human IFNγ protein (R&D systems, 285-IF-100) (human) (UniProt P01579); experiment: BLI (ForteBio Octet RED96); antibody captured on AHC anti-hIgG Fc biosensor, recombinant human IFNγ in solution; 1:1 Langmuir fit

Which Kd [1] does the source give for AMG811 (antibody) here?
Its Kd is under 0.1 nM.

B1: 2A6 (antibody, human IgG1, lambda, V domains shown)
VH: EVQLVESGGGLVKPGDSLTVSCVASGFTFSNYFIHWVRQAPGKGLEWVATISGRTKYMFYSDSLRGRFTVSRDNANNSVYLHMSSLRGEDTALYYCVRGYDHSDSNSAADLLHWGRGTLVTVSS
VL: NFMLTQPLSVSGYPGKTIVISCVRSSGSVASHYVQWFQQRPGSAPAMVIYEDSHRPSGIPDRFSGSVDASSNSASLTISGLKTEDEADYFCQSYYGNNQVLFGGGTKLTVLG
modifications: partial N-linked glycosylation at position 76 of the VH region
notes: Human IgG1 lambda, cloned from a single patient B cell and expressed in FreeStyle 293-F cells; also called 2A6 anti-IFNγ mAb
What does the source list for B1?
inhibition of HLA-DR expression on THP-1 cells stimulated with 2 ng/mL recombinant human IFN-γ, IC50 [2]: 3.4 ng/mL; Kd [3]: < 0.1 nM; binding result (BSA): no binding (tested: 1 µg/mL and 0.1 µg/mL)

B2: AB (antibody, V domains shown)
VH: EVQLVESGGGLVKPGDSLTVSCVASGFTFSNYFIHWVRQAPGKGLEWVATISGRTKYMFYSDSLRGRFTVSRDNANNSVYLHMSSLRGEDTALYYCVRGYDHSDSNSAADLLHWGRGTLVTVSS
VL: NFMLTQPHSVSESPGKTITISCTRGRGYIASYYVQWYQQRPGGVPKIVVFEDTQRPSGVPDRISGSIDTSTNSASLTISGLQTEDEADYYCQSYDDANHVIFGGGTKLTVLG
B2 was tested. Which Kd [4] did it give?
Its Kd is under 0.1 nM.

Does B2 bind (BSA)?
Result: no binding (tested: 1 µg/mL and 0.1 µg/mL)

B3: 1E8 (antibody, from a related filing, V domains shown)
VH: EVQLLESGGGLVQPGGPLRLSCAASGFTFSIYSMNWVRQAPGKGLEWVSSISGSGDNTYYADSVKGRFTITRDSSKNTLYLQMNTLRAEDTAVYFCAKSGRNIISPGFDSWGQGTLVTVSS
VL: QPVLTQPPSASASLGASVTLTCTLNSDYGDYKVDWYQQRPGKGPRFVMRVGTGGIVGSKGDGIPDRFSVLGSGLNRFLTIKNIQEEDESDYYCGADHGSANNFIWVFGGGTKLTVL
With B3 as the molecule, how does the Kd [5] read?
The Kd was 0.261 nM.

And the koff [5]?
Its koff is 0.000121 s⁻¹.

What about the kon [5] of the same molecule?
The kon was 464000 M⁻¹ s⁻¹.

B4: 2B6 (antibody, human IgG1, lambda, V domains shown)
VH: EVQLVESGGGLVKPGGSLRLSCAASGFPFSRYSMHWVRQAPGKGLEWVSSMTSRTNHKYYADSLKGRFLISRDNDRDSLYLEMNSLGVEDTAIYFCARGYDTSGSDSGVDFQYWGQGTLVTVSS
VL: NFMLTQPHSVSESPGKTITISCTRGRGYIASYYVQWYQQRPGGVPKIVVFEDTQRPSGVPDRISGSIDTSTNSASLTISGLQTEDEADYYCQSYDDANHVIFGGGTKLTVLG
notes: Human IgG1 lambda; also called 2B6 anti-IFNγ mAb
What does the source list for B4?
inhibition of HLA-DR expression on THP-1 cells stimulated with 2 ng/mL recombinant human IFN-γ, IC50 [2]: 3.5 ng/mL; Kd [3]: < 0.1 nM; binding result (BSA): no binding (tested: 1 µg/mL and 0.1 µg/mL)

B5: BA (antibody, V domains shown)
VH: EVQLVESGGGLVKPGGSLRLSCAASGFPFSRYSMHWVRQAPGKGLEWVSSMTSRTNHKYYADSLKGRFLISRDNDRDSLYLEMNSLGVEDTAIYFCARGYDTSGSDSGVDFQYWGQGTLVTVSS
VL: NFMLTQPLSVSGYPGKTIVISCVRSSGSVASHYVQWFQQRPGSAPAMVIYEDSHRPSGIPDRFSGSVDASSNSASLTISGLKTEDEADYFCQSYYGNNQVLFGGGTKLTVL
notes: Expressed from the same human IgG1 lambda vector as 2A6 and 2B6; also called antibody having the 2B6-VH and 2A6-VL
Does B5 bind (BSA)?
Result: no binding (tested: 1 µg/mL and 0.1 µg/mL)

B6: 2F2 (antibody, from a related filing, V domains shown)
VH: EVQLVESGGGLVKPGESLRLACVASGFNFSDYYMTWIRQAPGKGLEWVSYISNSGSHTYYADAVKGRFTVSRDNAKNSLYLQMTSLRGEDTAIYFCARDPSIMRGTYYMDVWGKGTTVTVSS
VL: QSVLTQPPSASGTPGQRVTISCSGSSSNIGTNPVSWYQQFPGMAPKLLIYFNNQRPSGVPERFSGSKSGTPASLAIGGLQSEDEANYYCASWDDTLNGLVFGGGTKLTVL
B6 was tested. Which Kd [5] did it give?
Its Kd is 0.317 nM.

And the koff [5]?
Its koff is 0.000109 s⁻¹.

And the kon [5]?
Its kon is 344000 M⁻¹ s⁻¹.
